Article PMC10167327, “Inositol pyrophosphates activate the vacuolar transport chaperone complex in yeast by disrupting a homotypic SPX domain interaction” (Nature Communications, 2023)
Residue numbers refer to the chain shown, from its start.

T1: Vtc2* (Vtc2(1–553), SPX and TTM domains of Vtc2 without the transmembrane domain) (S. cerevisiae, UniProt P43585 1-553)
T1 construct: Vtc2, subunit of the vacuolar transporter chaperone (VTC) complex, S. cerevisiae, residues 1-553 (SPX and TTM domains, no transmembrane domain); pET27b(+) construct from GenScript with a C-terminal TEV site and His10 tag; source: E. coli Lemo21(DE3) BL21, purified (HisTrap, Superdex 200)
T1 sequence (looked up): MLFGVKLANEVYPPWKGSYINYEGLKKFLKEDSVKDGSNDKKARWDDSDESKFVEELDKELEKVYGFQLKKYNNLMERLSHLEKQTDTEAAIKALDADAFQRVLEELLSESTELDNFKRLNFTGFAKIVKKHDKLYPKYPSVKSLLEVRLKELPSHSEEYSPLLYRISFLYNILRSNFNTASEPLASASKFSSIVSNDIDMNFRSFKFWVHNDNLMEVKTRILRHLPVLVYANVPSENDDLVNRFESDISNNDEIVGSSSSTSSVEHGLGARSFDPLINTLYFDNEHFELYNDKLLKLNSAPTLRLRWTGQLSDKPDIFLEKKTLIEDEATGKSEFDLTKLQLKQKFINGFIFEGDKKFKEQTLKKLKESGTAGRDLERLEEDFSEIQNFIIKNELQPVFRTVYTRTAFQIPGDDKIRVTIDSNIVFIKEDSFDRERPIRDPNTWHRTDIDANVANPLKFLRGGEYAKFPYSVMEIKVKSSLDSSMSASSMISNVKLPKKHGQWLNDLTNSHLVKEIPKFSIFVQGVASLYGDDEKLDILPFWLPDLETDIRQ

B1: Vtc4* (Vtc4(1–487), SPX and TTM domains of Vtc4 without the transmembrane domain) (domain or fragment)
chain: not shown
modifications: RED-tris-NTA 2nd generation dye on the His tag (MST); RED-NHS 2nd generation dye (MST with TTM2)
notes: Vtc4, catalytic subunit of the vacuolar transporter chaperone (VTC) complex, yeast, residues 1-487 (SPX and TTM domains, no transmembrane domain); pET27b(+) construct from GenScript with a C-terminal TEV site and His10 tag; The dye is absent in NMR and cross-linking; also called Vtc4ΔTM; source: E. coli Lemo21(DE3) BL21, purified (HisTrap, Superdex 200); not shown: His10, C-terminal, kept
B2: SPX2 S187A (domain or fragment, S. cerevisiae, UniProt P43585 1-201, looked up)
chain: MLFGVKLANEVYPPWKGSYINYEGLKKFLKEDSVKDGSNDKKARWDDSDESKFVEELDKELEKVYGFQLKKYNNLMERLSHLEKQTDTEAAIKALDADAFQRVLEELLSESTELDNFKRLNFTGFAKIVKKHDKLYPKYPSVKSLLEVRLKELPSHSEEYSPLLYRISFLYNILRSNFNTASEPLAAASKFSSIVSNDIDM
notes: Vtc2, S. cerevisiae, residues 1-201 (SPX2) with a point mutation in helix α7; also called serine 187 to alanine; source: E. coli Lemo21(DE3) BL21, purified; not shown: His5, C-terminal, cleaved
B3: SPX2 (SPX domain of Vtc2, Vtc2(1–201)) (domain or fragment, S. cerevisiae, UniProt P43585 1-201, looked up)
chain: B2 chain with A187S
notes: Vtc2, S. cerevisiae, residues 1-201 (SPX domain with helix α7 and the C-terminal linker); Residues of the TEV site may remain at the C-terminus after cleavage; also called Vtc2-SPX domain; source: E. coli Lemo21(DE3) BL21, purified (HisTrap, TEV, reversed HisTrap, cation exchange, Superdex 75); not shown: His5, C-terminal, cleaved
B4: SPX2 S189A (domain or fragment, S. cerevisiae, UniProt P43585 1-201, looked up)
chain: B2 chain with A187S, S189A
notes: Vtc2, S. cerevisiae, residues 1-201 (SPX2) with a point mutation in helix α7; also called serine 189 to alanine; source: E. coli Lemo21(DE3) BL21, purified; not shown: His5, C-terminal, cleaved
B5: SPX2 N121A (domain or fragment, S. cerevisiae, UniProt P43585 1-201, looked up)
chain: B2 chain with N121A, A187S
notes: Vtc2, S. cerevisiae, residues 1-201 (SPX2) with a pseudo-active point mutation; source: E. coli Lemo21(DE3) BL21, purified; not shown: His5, C-terminal, cleaved
B6: SPX2 K127A (domain or fragment, S. cerevisiae, UniProt P43585 1-201, looked up)
chain: B2 chain with K127A, A187S
notes: as for B5
B7: SPX2 Y19F (domain or fragment, S. cerevisiae, UniProt P43585 1-201, looked up)
chain: B2 chain with Y19F, A187S
notes: as for B5
B8: SPX2∆α7 (Vtc2(1–182)) (domain or fragment, S. cerevisiae, UniProt P43585 1-182, looked up)
chain: MLFGVKLANEVYPPWKGSYINYEGLKKFLKEDSVKDGSNDKKARWDDSDESKFVEELDKELEKVYGFQLKKYNNLMERLSHLEKQTDTEAAIKALDADAFQRVLEELLSESTELDNFKRLNFTGFAKIVKKHDKLYPKYPSVKSLLEVRLKELPSHSEEYSPLLYRISFLYNILRSNFNTAS
notes: Vtc2, S. cerevisiae, residues 1-182 (SPX domain without helix α7 and the C-terminal linker); source: E. coli Lemo21(DE3) BL21, purified (as SPX2, cation exchange in 20 mM MES pH 6.0); not shown: His5, C-terminal, cleaved

Columns and labels:
Assay in all cases: MST; His-tagged Vtc4* or TTM4 labelled with RED-tris-NTA 2nd generation dye, titrated with Vtc2* or SPX2 proteins; MST buffer 15 mM HEPES pH 7.0, 50 mM NaCl, 2 mM DTT; Monolith NT.115, 100 % laser power
Conditions in all cases: both partners purified
[1] = target: T1, Vtc2* (Vtc2(1–553), SPX and TTM domains …)
[2] = target: B1
[3] = target: T2, TTM4 (TTM domain of Vtc4, Vtc4(192–487)) (S. cerevisiae, UniProt P47075 192-487, RED-tris-NTA 2nd generation dye on the His tag)
T2 construct: Vtc4, yeast, residues 192-487 (triphosphate tunnel metalloenzyme domain); pET27b(+) construct from GenScript with a C-terminal TEV site and His10 tag; source: E. coli Lemo21(DE3) BL21, purified (HisTrap, Superdex 200); not shown: His10, C-terminal, kept
T2 sequence (P47075 192-487): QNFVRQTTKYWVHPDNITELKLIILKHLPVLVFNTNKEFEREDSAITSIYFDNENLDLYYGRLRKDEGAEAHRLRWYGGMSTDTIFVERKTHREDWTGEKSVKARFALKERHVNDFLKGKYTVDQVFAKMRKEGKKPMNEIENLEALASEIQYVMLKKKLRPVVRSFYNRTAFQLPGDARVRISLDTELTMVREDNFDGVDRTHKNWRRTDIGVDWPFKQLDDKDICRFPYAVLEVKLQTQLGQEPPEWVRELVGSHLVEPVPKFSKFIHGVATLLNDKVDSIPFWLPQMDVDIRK

Binder | binding result [2] | further results
B1 |  | Kd [1]: 13.8 µM
B2 | binds | 
B3 |  | fold reduction of affinity against Vtc4* [3]: ~20 fold
B4 | binds | 
B5 | binds | 
B6 | binds | 
B7 | binds | 
B8 | binds | 
